The target in data set [1] is T1, Nucleocapsid protein N (SARS-CoV-2, UniProt P0DTC9 1-419). The data set is described as follows: EMSA. Conditions: protein: recombinant; tags: N-terminal His6-TEV, tag removed; chain copies: 2; single strand.
The target of data set [2] is T2, Nsp3 Ubl1 (SARS-CoV-2, UniProt P0DTD1 819-929). The data set is described as follows: EMSA; 3.8 uM Ubl1. The conditions noted are these: protein: recombinant; tags: His tag removed by thrombin; single strand. In general terms: In EMSA bound probe runs differently from free probe, usually more slowly.
In data set [3] the target is T1, Nucleocapsid protein N. Briefly: EMSA; 3.8 uM N, 2.5 uM DNA; displaced by Ubl1. Conditions: protein: recombinant; tags: N-terminal His6-TEV, tag removed; chain copies: 2; single strand.
The target in data set [4] is T2, Nsp3 Ubl1. Briefly: MST; Ubl1 1, 5, 10 uM. The conditions noted are these: protein: recombinant; tags: His tag removed by thrombin; label: 5'-Cy5; single strand.
In data set [5] the target is T1, Nucleocapsid protein N. Briefly: MST; no Ubl1; 40 nM RNA. The conditions noted are these: protein: recombinant; tags: N-terminal His6-TEV, tag removed; chain copies: 2; label: 5'-Cy5; single strand.

On to UGUUCUCUAAACGAACU (ssRNA) [17-mer TRS ssRNA], for which the binding result is “binds” with Nucleocapsid protein N [1] and “no binding” with Nsp3 Ubl1 [2].
TGTTCTCTAAACGAACT (ssDNA) [17-mer TRS ssDNA]: the binding result in the data set with Nsp3 Ubl1 [2] is recorded as “no binding”; with Nucleocapsid protein N [3], “binds”.
UCUAAACGAAC (ssRNA) [11-mer TRS ssRNA]: the binding result in the data set with Nsp3 Ubl1 [4] is “no binding”. In addition, in the data set with Nucleocapsid protein N [5], the Kd amounted to 5.1 ± 0.6 µM.

What is called Kd is a measure of binding affinity in units of concentration.

These data come from paper PMC9938351, “Structural insights into ribonucleoprotein dissociation by nucleocapsid protein interacting with non-structural protein 3 in SARS-CoV-2”.
